Assay: soluble fraction after stress (log2 fold change); higher = more stays soluble; pooled small domains, quantitative proteomics
Conditions: stress: pH 4
Outline: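 Following acid stress at pH 4, the amount of each small protein domain still soluble was measured in pooled custom libraries by high-throughput quantitative proteomics. Its fold change, on a log2 scale, is higher when more of the domain stayed soluble. This fold change is taken as a measure of aggregation propensity.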

Sequence	soluble fraction (log2)
HMEAKKVIAVHIIGEINKPGIVELEEGARVIDAIKKAGGTTEKADLAQINLAYILKDGQKIYIPNTEDN	-0.334
HMEALASESVKDKIRKIIDSEDPSRPMSDQRIKEMLKAANIDIARRTVTKYREAMNILSSTKRRQV	-0.168
HMEALDPLTAREQEVLEMILSGKSNREIAAELHITENTVKTHAQSIYSKYDVRGRAKLISLLLKGEA	-0.192
HMEALQKVSINYYDEGAGKQIAEVPLEVGAGDTEIALAVINKYMPAEYNLVSTDYQIRGGYVYVSVTPA	-0.215
HMEAPPHEALSNREFQVLQLLSQGRSVTQIAHQLTLSANTISTYRARIFDKLGLHNPADLYAYAARHGLM	-0.0709
HMEAPWQEIKRQVMDGLDMSREFTDEELRERIALAVRSYSKEKLLSLKVRESYEEQIFNSFR	-0.261
HMEAQFIDINDVRIGTYVYVDLGWIKHPFALNSFKITSRDQIDTLIKLGVKRIRWSPEKSDS	-0.483
HMEARNDWAQQSRADAEFGGEKLDENLAVAKKAVEALASPELKTLLEQSGLGNHPEIIRLFYRAGRSLS	-0.122
HMEATILTATPEAAGQRLDAFLAETLPELTRSAAQRLIAEGQVAVDGKIPTKSLKLAGGETVSVRLPEPE	-0.0707
HMEAVIGGIYRHYKGNNYKLLAVATHSETLEKMAVYQALYGEMGIWVRPLAMFMETIEKDGQSLKRFE	-0.932
HMEDAWMKKELWDAIATLPKKQRLVMTMRLTNNHSYKEIAAILGISENSAKVSYHHAVERLKEKFK	0.0668
HMEDDPIYEQVMIFLLDKQITSAPELERRFKITHQRAIELLAQMEKTGIVSTMGHAGKRDVLT	-0.355
HMEDEFNQIASQKNVPSFLGKGKKEVINIAKKNKIKINLSGNGYVKRQIPAPGEVISHLDEVTIFLEPG	-0.179
HMEDEVYFVPSPASRFNPWIAALASRRVPYRVEYDGAERRIAVPAGYAEKAGEELAAYERINHAWPR	-0.111
HMEDFDLSDTERKIIAQIGHGYSNKEIAQKLGFSEGTIRNYLSVILDKLDLRDRTQLAIWYLSR	-0.229
HMEDIAAIAQRIQGLRDIVGISVEEMAKALDISEQEYREYEKGETDFSFSFLYTVANVLGINITDLI	-1.56
HMEDIEEVIVEIDTVLRTHFDRGRTEVLFAEIETAGGRPFMTYLALLFMAHRGSVRLQQDDLFGDLWVKDP	-0.959
HMEDISLYKILRAHSIDNLKLSQWIIDSLKTKFSTIGELQDAKIDDIRMYRIQDVRIEKIKNAVTEYMA	-0.701
HMEDISQHAVKKLVQEMVMAEDPRDPLSDQQIAENLSRLGLKVARRTVAKYRAMLGIQPSNRRRK	0.0963
HMEDIVDLVVEPEAAGRRLDAWLASRIERLSRSRIKALIESGHVAIGGATIVEAKKPVNSGDVVQLSVPEG	-0.121
HMEDKQRRMGELVALLNRAAYAYYTKDEPIMADVQYDRLYDELLSLEKETGVQMADSPTHRV	-0.871
HMEDLMEERKEHLLSVMKDPAYVPMKQKELAMLLNVPKGLREELNQVLDALVAEGSVVMSKRGKYTIPQ	0.189
HMEDNLVTYPNPTSDYIYVSKKVDLTVVNMLGDILIQKQNINVLDVTELTPGMYTIVIRYNNVTTNKRIIK	-0.335

Sequence	soluble fraction (log2)
HMEDPFATLGVHREASLDEIKRAYRRLAMFWHPDRNPEAVAGTEFKRVHAAYELLLDPQRLAEWQQAQAT	-0.424
HMEDPLAAQWKQGRKLFHDDYGYGIISKAFTAGDELVIMVQFENGGEKRFLPKYQAHNLLLVEQ	-1.3
HMEDQVITQFNMRLIRAVMPQGAPMIVVYEDPKDYPGLFVARLFDGRKSTHLIALADTLEDI	-0.351
HMEDVDTAALEKVIATAKGLNKNDYTATTWTTMQAALTNAEKALEAKKSQTSVDEAAKTLQAAIDGLKKAS	-0.103
HMEDVPYMIKLPSHHYLTKMVDGSTGWSLVQNSNTVVGSSKEELLKQYPEYEDFIVQEPLNV	-0.336
HMEDVSTLAVKQRIDDLVKQENPAKPLSDSDIVARLKTDGIYIARRTVAKYRMELNIPSSSARKRAQQFS	0.266
HMEDWTPERFVGAFVSGGPALRDEILLAATKDLSHAQATRLLKLAEARGLVHRSQPGPSERVRFVVARK	-0.0732
HMEDYTPLQELGLKARYIELLEKGGIFSVEDLVQKSVDDLKDIDGIGEKTAKEIWEIVDSMVDF	-0.308
HMEDYYKEDYYTEVLKIPKEYIKGFQYYLIEDAEFVNALNAKNKTMTSFLAKKLASDYIEIIHQEQ	-1.44
HMEEDDGVDFHERLTELNDEQVYYLINTEPAKVIALALDQLGQKRKINIMNRFNPDMKHSIIMELGKL	-0.666
HMEEDGAPLESREVLLDQAISQGKGTQWTIATETKLEDHIVSGAYSTDGKVTLAVFSPLGDGKYEFSSSVN	-0.172
HMEEDPIIIAQRFLNIFRQLHIFSEEKKESFNKMLLEQPAEIRGALRSLPGGGLLQDYIDDLESKA	-0.711
HMEEEEITIHIIGEVKYPGIVILKTGQRIIDAIDAAGGETEEADLNKINLAQLLSDGDKIYVPSINDN	-1.05
HMEEFAGYINGQPYYGPTHQHRGVKMVGAEHTQRPHPLVWDSVAKSLDNYDNRFQWVNGNLLQVV	0.3
HMEEFGRRLKERMIDKNMTEAELAQKTELWSSILTSYLKGERFPGYYTLLRIAEALDVSIDFLLGLRDEPE	-2.01
HMEEILLSVKADGTYWVDQKEVTLDEVGALLDKEPDRLLNIFMDEKVPVRHFINVVDIAKVKREGRFII	-1.74
HMEEIQLILAKNLKSIREKEKLSLEKVSQLTGVSKTMIGQIERGDSSPTLTTIWKIANGLKVSFTSLINNP	0.182
HMEEKKYEVGDVVSFNYLYKNSFAEGKVSSLIHSGTITRIIDGRPAPYLINRGTGWLSNDLILT	-0.179
HMEEKNNIIVSYIEDKISELEKASMYVPNENKEKLIMAFKNRNEDIDVIKTRIDTIFNNSVAAYKENME	-1.32
HMEEKTMNLPPSAKLVYKILSYEGNLTQKEIINMTYLPERTVRHALELLLGKRLITRQAYLNDARQSVYG	-0.265
HMEEKVEVPNLSGKTYQQAKALLESYGLVAAKGGEEESEEPVGKVSRWSSAGKSVKKGTTITVWISGGI	0.1
HMEEKWKENYEKIKLFISINNRYPSVYSEDKEEGLIGSFMSNQKRRKNKLSKEKMALFEALPNWIWE	-0.812
HMEELNFYPNPAYKYINLDYVGLKEIYTVLGKKLLETYDTRINISNLNSGIYLIKFKNQALRFVK	-0.32

Sequence	soluble fraction (log2)
HMEELVGFEEKVRSILTSPLSAKEIKEKTHIEIDTRKLSKMLSELSFIKTEKKNGKKIFRLVS	-0.0997
HMEEMADILKTRIDTLDLSTRTLNALTGANIRTVGGIARKKKEDLLELAGMGEKGIQEIKKVLGGFGITL	0.15
HMEEPEYELLRQAVLALPEKYRLPIHLYYYEEYSVREIAEILQRKESAVQTQLQRGREKIRRSLTEKGVS	-0.941
HMEEPLIISIDSNGAVYLEVDSFKDQSIEMSSLREIIEKIILANPDIQVVVRGDSEVKYEKVMDLMSILQS	-1.95
HMEEQGLPLVIISDGKVLAQNLTLRSLDRAWLQDQLTQHGHSKPEQVFLLTVDERGAVYYVPKE	-1.86
HMEEQQIQLIQMKMEKDHKYVGKKISELRIKNMLIVLIKRGDEDIIPRAEVKIKEGDILVLSAQSYEG	-0.29
HMEETAFEKLSPLQKLRALGKPLTMINMRDGSQIAGSVQRSDDKFLYLDTGDGIAKLPVEEILRRTPM	0.13
HMEETIVFGQQKAINALSSDAGLSSNELDSYLKKRYKRPLYQLSKSEGAELIQGFQDGSLSKASIMDYVS	0.346
HMEEVIEVEGKITAVLPSTMFRAELENGHQVLAHISGKLRKHFIKITVGDIVKMEMSTQDLQKARIV	-0.831
HMEEVRFPLKKEILLWALKEAQVDEDEVFRKFTNLEKWINGEKHPTFKQIESLANYLKIPFGYMFLEKPPI	-1.47
HMEEVVIPDLAGLTEEEATKVLMAKELKLKVSGSQHSDIEKGLIISQDPPAGEKGAKNSQVAVVTSSG	-0.000599
HMEFDFGAILSGNGGSELYSGYSAEQKAALVEAAKADGMDVEFGADGSTTFKDKDGSEVVQKADGTWTV	-0.0653
HMEFDVELTSFEEAKKLKVIKEVKDVTGLSLGEAKDLVMGAPKAIKTGVSKEEAEAIKTQIEAAGAVVTI	-0.699
HMEFDYIVKVPDVRNKKIEDAGKILIDLGLKYTTESDYITQDLKVIDQFPLPGTEVSKGSIIDIYLEEDFK	-0.446
HMEFEKYKYHYIFDDVLGLRIVWDRGKEHFSYFVNEELAEKSRKSDKDALEVMFYLEHKRWPEEGELENY	-1.07
HMEFEYTVVVPETRGKTIGEAGRILLDLELKYTSESMNIREDSKVIDQFPSPGTEVSKGSIIDLYLDE	-1.91
HMEFQISLAAARVNANMTQEDTARAMKVSKTTIVNWEKGKVIPGIPEVEMMSRLYGIPQDYIFLP	-0.796
HMEFSYLEEIGHEKGDLIKGLQLIQQKEGYVSDDAVRAVAENFGMSPAEVEGVLTFYAQFKR	-1
HMEGFKSVYFLTTPSGAEISDRSVGDIISKTPSLVSAQEGTEFEFNLKGYQPSFYMINKRSPDRVFVELIP	-0.575
HMEGLEKDDGGYYFEKDNGERARNEWVYVEYEGKGYWYYMTDYGYPLRSAITPDGYKVNSNGHWIDEGN	-1.12
HMEGLESVVPDLRGKSLKSAAIAAGLSGFALSPEGSGIVYKQSPAPGGRYLKGTLIAVWLRT	0.22
HMEGMQATVTQITDEGITVRYVMNGQMVTRTLTSDEVAFVNRGQAVSDLAGAYRVGQTVWIY	-0.179
HMEGNAFASTGDPEADILDITAVHPMRRDAVEELLARSGAEWSLVEGMLRDGKITMAPWEGEEFFIRS	-1.35

Source: the domain aggregation screens of Martell et al. (2025)
